These results are taken from US20220177581A1 (Memorial Sloan Kettering, published 2022).

One may read the Kd as the equilibrium constant for the complex coming apart. Low values mean a tighter complex, high ones a looser complex. In general, koff refers to the first-order rate constant of dissociation. The kon is the second-order rate constant of association.

In assay [1] the target is T1, CD22 (antigen in the Biacore assay) (human, UniProt P20273 20-687, limits assumed).
T1 sequence: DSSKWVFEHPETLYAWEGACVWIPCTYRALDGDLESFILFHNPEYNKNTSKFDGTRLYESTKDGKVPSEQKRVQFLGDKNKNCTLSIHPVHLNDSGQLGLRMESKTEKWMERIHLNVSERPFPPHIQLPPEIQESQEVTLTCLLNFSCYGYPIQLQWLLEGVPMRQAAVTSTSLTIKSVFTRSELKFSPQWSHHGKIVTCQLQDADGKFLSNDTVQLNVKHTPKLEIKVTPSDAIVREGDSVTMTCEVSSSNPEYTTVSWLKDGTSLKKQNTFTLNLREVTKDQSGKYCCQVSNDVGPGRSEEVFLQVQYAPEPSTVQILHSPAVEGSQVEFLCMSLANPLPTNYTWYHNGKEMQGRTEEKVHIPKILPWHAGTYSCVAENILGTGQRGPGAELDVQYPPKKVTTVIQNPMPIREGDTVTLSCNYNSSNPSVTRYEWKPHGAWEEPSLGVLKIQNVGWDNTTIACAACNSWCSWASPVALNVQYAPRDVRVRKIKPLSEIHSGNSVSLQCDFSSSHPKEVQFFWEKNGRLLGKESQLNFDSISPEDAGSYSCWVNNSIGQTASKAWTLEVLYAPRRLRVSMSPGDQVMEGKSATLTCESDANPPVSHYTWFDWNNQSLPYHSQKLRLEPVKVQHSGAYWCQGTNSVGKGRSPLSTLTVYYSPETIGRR
The experiment in a line: SPR (Biacore) at 37° C.

Assay [2] deals with T2, CD22 (UniProtKB-P20273) on CD22(+) cells (human, UniProt P20273 20-847).
T2 construct: Endogenous CD22 on the NALM6 and Raji cell lines; also called SIGLEC-2; BL-CAM
T2 sequence: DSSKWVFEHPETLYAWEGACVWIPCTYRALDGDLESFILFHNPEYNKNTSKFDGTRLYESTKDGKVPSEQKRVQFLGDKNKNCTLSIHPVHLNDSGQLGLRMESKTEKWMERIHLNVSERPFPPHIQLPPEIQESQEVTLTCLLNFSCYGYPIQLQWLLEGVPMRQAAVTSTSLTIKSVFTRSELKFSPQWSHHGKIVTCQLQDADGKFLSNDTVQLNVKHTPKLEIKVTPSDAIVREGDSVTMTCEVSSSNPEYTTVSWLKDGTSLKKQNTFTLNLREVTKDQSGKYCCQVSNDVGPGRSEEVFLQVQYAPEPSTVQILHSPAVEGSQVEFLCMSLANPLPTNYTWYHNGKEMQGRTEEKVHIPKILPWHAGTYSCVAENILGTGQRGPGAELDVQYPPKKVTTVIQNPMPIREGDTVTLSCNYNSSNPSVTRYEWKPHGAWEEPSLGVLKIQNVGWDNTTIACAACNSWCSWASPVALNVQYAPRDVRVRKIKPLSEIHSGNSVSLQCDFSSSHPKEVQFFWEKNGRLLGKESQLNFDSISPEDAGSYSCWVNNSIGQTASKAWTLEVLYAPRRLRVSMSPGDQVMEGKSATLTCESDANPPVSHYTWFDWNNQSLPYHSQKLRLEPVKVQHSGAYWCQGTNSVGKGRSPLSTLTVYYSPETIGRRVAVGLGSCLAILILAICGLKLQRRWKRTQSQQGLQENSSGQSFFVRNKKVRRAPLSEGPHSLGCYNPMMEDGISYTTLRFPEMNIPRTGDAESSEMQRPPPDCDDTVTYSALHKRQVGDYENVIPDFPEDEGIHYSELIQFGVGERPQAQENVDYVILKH
The experiment in a line: flow cytometry on CD22(+) NALM6 cells. (In general: A flow cytometer gives signals particle by particle.)

B1: chimeric LL2 antibody (antibody, V domains shown)
VH: QVQLQESGAELSKPGASVKMSCKASGYTFTSYWLHWIKQRPGQGLEWIGYINPRNDYTEYNQNFKDKATLTADKSSSTAYMQLSSLTSEDSAVYYCARRDITTFYWGQGTTLTVSS
VL: DIQLTQSPSSLAVSAGENVTMSCKSSQSVLYSANHKNYLAWYQQKPGQSPKLLIYWASTRESGVPDRFTGSGSGTDFTLTISRVQVEDLAIYYCHQYLSSWTFGGGTKLEIK
notes: Murine LL2 variable domains with human constant domains (IgG1)
As for B1, in assay [1], the Kd stood at 1.37 pM, the koff worked out at 2.31e-07 s⁻¹ and the kon was 169000 M⁻¹ s⁻¹. Further, the “MFI (FACS NALM6)” value in assay [2] is 33.4.

B2: humanized LL2 L1 + H12 (antibody, V domains shown)
VH: QVQLQQSGAEVKKPGASVKMSCKASGYTFTSYWLHWVRQAPGQRLEWMGYINPRNDYTEYNQNFKDRVTITADTSASTAYMELSSLRSEDTAVYYCARRDITTFYWGQGTTLTVSS
VL: DIVLTQSPDSLAVSAGERVTMNCKSSQSVLYSANHKNYLAWYQQKPGQPPKLLIYWASTRESGVPDRFSGSGSGTDFTLTISSVQAEDVAIYYCHQYLSSWTFGGGTKLEIK
notes: Human IgG1 frameworks; also called H12L1; VL1-VH12
In assay [1], B2 had a Kd of 2.05 pM, a koff of 5.88e-07 s⁻¹ and a kon of 287000 M⁻¹ s⁻¹. Also, the “MFI (FACS NALM6)” value in assay [2] came out at 39.2.

B3: humanized LL2 L1 + H9 (antibody, V domains shown)
VH: QVQLVQSGAEVKKPGASVKVSCKASGYTFTSYWLHWVRQAPGQRLEWIGYINPRNDYTEYNQNFKDRVTITADTSASTAYMELSSLRSEDTAVYYCARRDITTFYWGQGTTLTVSS
VL: DIVLTQSPDSLAVSAGERVTMNCKSSQSVLYSANHKNYLAWYQQKPGQPPKLLIYWASTRESGVPDRFSGSGSGTDFTLTISSVQAEDVAIYYCHQYLSSWTFGGGTKLEIK
notes: Human IgG1 frameworks; also called H9L1
In assay [1], B3 showed a Kd of 24.8 pM, a koff of 3.3e-06 s⁻¹ and a kon of 133000 M⁻¹ s⁻¹. For the same molecule, the “MFI (FACS NALM6)” value in assay [2] is 34.5.

B4: humanized LL2 L1 + H6 (antibody, V domains shown)
VH: QVQLQQSGAEVKKPGASVKVSCKASGYTFTSYWLHWIRQAPGQRLEWMGYINPRNDYTEYNQNFKDRVTITRDTSASTAYMELSSLRSEDTAVYYCARRDITTFYWGQGTTLTVSS
VL: DIVLTQSPDSLAVSAGERVTMNCKSSQSVLYSANHKNYLAWYQQKPGQPPKLLIYWASTRESGVPDRFSGSGSGTDFTLTISSVQAEDVAIYYCHQYLSSWTFGGGTKLEIK
notes: Human IgG1 frameworks; also called H6L1
Turning to B4, in assay [1], the Kd turned out to be 0.17 pM, the koff was determined as 2.91e-08 s⁻¹ and the kon came to 171000 M⁻¹ s⁻¹. Further, the “MFI (FACS NALM6)” value in assay [2] was 33.5.

B5: humanized LL2 L1 + H3 (antibody, V domains shown)
VH: QVQLQQSGAEVKKPGASVKVSCKASGYTFTSYWLHWIRQAPGQRLEWIGYINPRNDYTEYSQKFQGRATLTADTSASTAYMELSSLRSEDTAVYYCARRDITTFYWGQGTTLTVSS
VL: DIVLTQSPDSLAVSAGERVTMNCKSSQSVLYSANHKNYLAWYQQKPGQPPKLLIYWASTRESGVPDRFSGSGSGTDFTLTISSVQAEDVAIYYCHQYLSSWTFGGGTKLEIK
notes: Human IgG1 frameworks; also called H3L1
In assay [1], B5 yielded a Kd of 34.4 pM, a koff of 3.09e-06 s⁻¹ and a kon of 89800 M⁻¹ s⁻¹. The “MFI (FACS NALM6)” value in assay [2] turned out to be 31.9.

B6: humanized LL2 L1 + H10 (antibody, V domains shown)
VH: QVQLVQSGAEVKKPGASVKVSCKASGYTFTSYWLHWVRQAPGQRLEWMGYINPRNDYTEYNQNFKDRVTLTADKSASTAYMELSSLRSEDTAVYYCARRDITTFYWGQGTTLTVSS
VL: DIVLTQSPDSLAVSAGERVTMNCKSSQSVLYSANHKNYLAWYQQKPGQPPKLLIYWASTRESGVPDRFSGSGSGTDFTLTISSVQAEDVAIYYCHQYLSSWTFGGGTKLEIK
notes: Human IgG1 frameworks; also called H10L1
B6: in assay [1], binding was put at a Kd of 0.0435 pM, the koff amounted to 7.67e-09 s⁻¹ and the kon came out at 176000 M⁻¹ s⁻¹. In addition, the “MFI (FACS NALM6)” value in assay [2] amounted to 32.7.

B7: humanized LL2 L1 + H4 (antibody, V domains shown)
VH: QVQLQQSGAEVKKPGASVKMSCKASGYTFTSYWLHWIRQAPGQRLEWMGYINPRNDYTEYNQKFQGRATITADKSASTAYMELSSLRSEDTAVYYCARRDITTFYWGQGTTLTVSS
VL: DIVLTQSPDSLAVSAGERVTMNCKSSQSVLYSANHKNYLAWYQQKPGQPPKLLIYWASTRESGVPDRFSGSGSGTDFTLTISSVQAEDVAIYYCHQYLSSWTFGGGTKLEIK
notes: Human IgG1 frameworks; also called H4L1
Regarding B7, in assay [1], the Kd amounted to 0.00191 pM and the kon turned out to be 154000 M⁻¹ s⁻¹. Besides, the “MFI (FACS NALM6)” value in assay [2] was 33.6.

B8: humanized LL2 L2 + H1 (antibody, V domains shown)
VH: QVQLVESGAEVKKPGASVKMSCKASGYTFTSYWLHWIRQAPGQRLEWIGYINPRNDYTKYSQKFQGRATITADKSASTAYMELSSLRSEDTAVYYCARRDITTFYWGQGTTLTVSS
VL: DIVLTQSPDSLAVSLGERVTMNCKSSQSVLYSANHKNYLAWYQQKPGQSPKLLIYWASTRESGVPDRFSGSGSGTDFTLTISSVQAEDVAIYYCHQYLSSWTFGGGTKLEIK
notes: Human IgG1 frameworks; also called H1L2
In the case of B8, in assay [1], binding was put at a Kd of 403 pM, the koff turned out to be 0.00219 s⁻¹ and the kon turned out to be 5.43e+06 M⁻¹ s⁻¹. Further, the “MFI (FACS NALM6)” value in assay [2] is 40.

B9: humanized LL2 L1 + H5 (antibody, V domains shown)
VH: QVQLQESGAEVKKPGASVKVSCKASGYTFTSYWLHWVRQAPGQRLEWIGYINPRNDYTEYSQKFQGRATLTADTSASTAYMELSSLRSEDTAVYYCARRDITTFYWGQGTTLTVSS
VL: DIVLTQSPDSLAVSAGERVTMNCKSSQSVLYSANHKNYLAWYQQKPGQPPKLLIYWASTRESGVPDRFSGSGSGTDFTLTISSVQAEDVAIYYCHQYLSSWTFGGGTKLEIK
notes: Human IgG1 frameworks; also called H5L1
In assay [1], B9 gave a Kd of 41 pM, a koff of 4.19e-06 s⁻¹ and a kon of 102000 M⁻¹ s⁻¹. In addition, the “MFI (FACS NALM6)” value in assay [2] is 35.2.

B10: humanized LL2 L1 + H11 (antibody, V domains shown)
VH: QVQLVQSGAEVKKPGASVKMSCKASGYTFTSYWLHWVRQAPGQRLEWMGYINPRNDYTEYNQNFKDRATITADTSASTAYMELSSLRSEDTAVYYCARRDITTFYWGQGTTLTVSS
VL: DIVLTQSPDSLAVSAGERVTMNCKSSQSVLYSANHKNYLAWYQQKPGQPPKLLIYWASTRESGVPDRFSGSGSGTDFTLTISSVQAEDVAIYYCHQYLSSWTFGGGTKLEIK
notes: Human IgG1 frameworks; also called H11L1; VL1-VH11
In assay [1], B10 returned a Kd of 0.0104 pM, a koff of 1.71e-09 s⁻¹ and a kon of 164000 M⁻¹ s⁻¹. For the same molecule, the “MFI (FACS NALM6)” value in assay [2] turned out to be 33.6.

B11: humanized LL2 L1 + H2 (antibody, V domains shown)
VH: QVQLQESGAEVKKPGASVKMSCKASGYTFTSYWLHWIRQAPGQRLEWIGYINPRNDYTKYSQKFQGRVTLTRDKSASTAYMELSSLRSEDTAVYYCARRDITTFYWGQGTTLTVSS
VL: DIVLTQSPDSLAVSAGERVTMNCKSSQSVLYSANHKNYLAWYQQKPGQPPKLLIYWASTRESGVPDRFSGSGSGTDFTLTISSVQAEDVAIYYCHQYLSSWTFGGGTKLEIK
notes: Human IgG1 frameworks; also called H2L1
Consider B11, for which, in assay [1], the Kd worked out at 1720 pM, the koff came out at 0.00478 s⁻¹ and the kon amounted to 2.77e+06 M⁻¹ s⁻¹. Besides, the “MFI (FACS NALM6)” value in assay [2] amounted to 32.8.
